# Experimental data as given in patent publication US20210388087A1 (Chugai, published 2021).
# Molecular target: T1, Human CD137 ECD (human)
# T1 construct: also called 4-1BB
# Experiment: single mutant vs template dBBDu183H
# T1 sequence (chain, as listed by the source limits assumed): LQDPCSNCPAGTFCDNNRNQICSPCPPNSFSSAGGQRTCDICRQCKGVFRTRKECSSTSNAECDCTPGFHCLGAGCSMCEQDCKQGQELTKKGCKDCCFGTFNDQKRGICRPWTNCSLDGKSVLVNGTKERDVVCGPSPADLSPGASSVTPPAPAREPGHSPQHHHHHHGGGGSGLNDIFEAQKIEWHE
row,fold change of affinity,Binder
1,0.3 fold,"H183/L072 VH A54T (antibody, name in Kabat numbering, V domains shown) VH: QVQLVESGGGLVQPGRSLRLSCAASGFTFSNAWMHWVRQAPGKGLEWVAQIKDKGNTYAAYYAPSVKGRFTISRDDSKNSIYLQMNSLKTEDTAVYYCHYVHYASASTVLPAFGVDAWGQGTTVTVSS VL: DIVMTQSPLSLPVTPGEPASISCQASQELVHMNRNTYLHWYQQKPGQAPRLLIYKVSNRFPGVPDRFSGSGSGTDFTLKISRVEAEDVGVYYCAQGTSVPFTFGQGTKLEIK"
2,0.6 fold,"H183/L072 VH A56H (antibody, name in Kabat numbering, V domains shown) VH: QVQLVESGGGLVQPGRSLRLSCAASGFTFSNAWMHWVRQAPGKGLEWVAQIKDKGNAYHAYYAPSVKGRFTISRDDSKNSIYLQMNSLKTEDTAVYYCHYVHYASASTVLPAFGVDAWGQGTTVTVSS VL: DIVMTQSPLSLPVTPGEPASISCQASQELVHMNRNTYLHWYQQKPGQAPRLLIYKVSNRFPGVPDRFSGSGSGTDFTLKISRVEAEDVGVYYCAQGTSVPFTFGQGTKLEIK"
3,0.9 fold,"H183/L072 VH A54Y (antibody, name in Kabat numbering, V domains shown) VH: QVQLVESGGGLVQPGRSLRLSCAASGFTFSNAWMHWVRQAPGKGLEWVAQIKDKGNYYAAYYAPSVKGRFTISRDDSKNSIYLQMNSLKTEDTAVYYCHYVHYASASTVLPAFGVDAWGQGTTVTVSS VL: DIVMTQSPLSLPVTPGEPASISCQASQELVHMNRNTYLHWYQQKPGQAPRLLIYKVSNRFPGVPDRFSGSGSGTDFTLKISRVEAEDVGVYYCAQGTSVPFTFGQGTKLEIK"
4,0.2 fold,"H183/L072 VH A56P (antibody, name in Kabat numbering, V domains shown) VH: QVQLVESGGGLVQPGRSLRLSCAASGFTFSNAWMHWVRQAPGKGLEWVAQIKDKGNAYPAYYAPSVKGRFTISRDDSKNSIYLQMNSLKTEDTAVYYCHYVHYASASTVLPAFGVDAWGQGTTVTVSS VL: DIVMTQSPLSLPVTPGEPASISCQASQELVHMNRNTYLHWYQQKPGQAPRLLIYKVSNRFPGVPDRFSGSGSGTDFTLKISRVEAEDVGVYYCAQGTSVPFTFGQGTKLEIK"
5,0.7 fold,"H183/L072 VH A56N (antibody, name in Kabat numbering, V domains shown) VH: QVQLVESGGGLVQPGRSLRLSCAASGFTFSNAWMHWVRQAPGKGLEWVAQIKDKGNAYNAYYAPSVKGRFTISRDDSKNSIYLQMNSLKTEDTAVYYCHYVHYASASTVLPAFGVDAWGQGTTVTVSS VL: DIVMTQSPLSLPVTPGEPASISCQASQELVHMNRNTYLHWYQQKPGQAPRLLIYKVSNRFPGVPDRFSGSGSGTDFTLKISRVEAEDVGVYYCAQGTSVPFTFGQGTKLEIK"
6,0.8 fold,"H183/L072 VH A56K (antibody, name in Kabat numbering, V domains shown) VH: QVQLVESGGGLVQPGRSLRLSCAASGFTFSNAWMHWVRQAPGKGLEWVAQIKDKGNAYKAYYAPSVKGRFTISRDDSKNSIYLQMNSLKTEDTAVYYCHYVHYASASTVLPAFGVDAWGQGTTVTVSS VL: DIVMTQSPLSLPVTPGEPASISCQASQELVHMNRNTYLHWYQQKPGQAPRLLIYKVSNRFPGVPDRFSGSGSGTDFTLKISRVEAEDVGVYYCAQGTSVPFTFGQGTKLEIK"
7,0.2 fold,"H183/L072 VH A56I (antibody, name in Kabat numbering, V domains shown) VH: QVQLVESGGGLVQPGRSLRLSCAASGFTFSNAWMHWVRQAPGKGLEWVAQIKDKGNAYIAYYAPSVKGRFTISRDDSKNSIYLQMNSLKTEDTAVYYCHYVHYASASTVLPAFGVDAWGQGTTVTVSS VL: DIVMTQSPLSLPVTPGEPASISCQASQELVHMNRNTYLHWYQQKPGQAPRLLIYKVSNRFPGVPDRFSGSGSGTDFTLKISRVEAEDVGVYYCAQGTSVPFTFGQGTKLEIK"
8,0.5 fold,"H183/L072 VH A54V (antibody, name in Kabat numbering, V domains shown) VH: QVQLVESGGGLVQPGRSLRLSCAASGFTFSNAWMHWVRQAPGKGLEWVAQIKDKGNVYAAYYAPSVKGRFTISRDDSKNSIYLQMNSLKTEDTAVYYCHYVHYASASTVLPAFGVDAWGQGTTVTVSS VL: DIVMTQSPLSLPVTPGEPASISCQASQELVHMNRNTYLHWYQQKPGQAPRLLIYKVSNRFPGVPDRFSGSGSGTDFTLKISRVEAEDVGVYYCAQGTSVPFTFGQGTKLEIK"
9,0.8 fold,"H183/L072 VH A56Q (antibody, name in Kabat numbering, V domains shown) VH: QVQLVESGGGLVQPGRSLRLSCAASGFTFSNAWMHWVRQAPGKGLEWVAQIKDKGNAYQAYYAPSVKGRFTISRDDSKNSIYLQMNSLKTEDTAVYYCHYVHYASASTVLPAFGVDAWGQGTTVTVSS VL: DIVMTQSPLSLPVTPGEPASISCQASQELVHMNRNTYLHWYQQKPGQAPRLLIYKVSNRFPGVPDRFSGSGSGTDFTLKISRVEAEDVGVYYCAQGTSVPFTFGQGTKLEIK"
10,0.7 fold,"H183/L072 VH A56M (antibody, name in Kabat numbering, V domains shown) VH: QVQLVESGGGLVQPGRSLRLSCAASGFTFSNAWMHWVRQAPGKGLEWVAQIKDKGNAYMAYYAPSVKGRFTISRDDSKNSIYLQMNSLKTEDTAVYYCHYVHYASASTVLPAFGVDAWGQGTTVTVSS VL: DIVMTQSPLSLPVTPGEPASISCQASQELVHMNRNTYLHWYQQKPGQAPRLLIYKVSNRFPGVPDRFSGSGSGTDFTLKISRVEAEDVGVYYCAQGTSVPFTFGQGTKLEIK"
11,0.8 fold,"H183/L072 VH A54W (antibody, name in Kabat numbering, V domains shown) VH: QVQLVESGGGLVQPGRSLRLSCAASGFTFSNAWMHWVRQAPGKGLEWVAQIKDKGNWYAAYYAPSVKGRFTISRDDSKNSIYLQMNSLKTEDTAVYYCHYVHYASASTVLPAFGVDAWGQGTTVTVSS VL: DIVMTQSPLSLPVTPGEPASISCQASQELVHMNRNTYLHWYQQKPGQAPRLLIYKVSNRFPGVPDRFSGSGSGTDFTLKISRVEAEDVGVYYCAQGTSVPFTFGQGTKLEIK"
12,0.3 fold,"H183/L072 VH A56D (antibody, name in Kabat numbering, V domains shown) VH: QVQLVESGGGLVQPGRSLRLSCAASGFTFSNAWMHWVRQAPGKGLEWVAQIKDKGNAYDAYYAPSVKGRFTISRDDSKNSIYLQMNSLKTEDTAVYYCHYVHYASASTVLPAFGVDAWGQGTTVTVSS VL: DIVMTQSPLSLPVTPGEPASISCQASQELVHMNRNTYLHWYQQKPGQAPRLLIYKVSNRFPGVPDRFSGSGSGTDFTLKISRVEAEDVGVYYCAQGTSVPFTFGQGTKLEIK"
13,0.6 fold,"H183/L072 VH A56G (antibody, name in Kabat numbering, V domains shown) VH: QVQLVESGGGLVQPGRSLRLSCAASGFTFSNAWMHWVRQAPGKGLEWVAQIKDKGNAYGAYYAPSVKGRFTISRDDSKNSIYLQMNSLKTEDTAVYYCHYVHYASASTVLPAFGVDAWGQGTTVTVSS VL: DIVMTQSPLSLPVTPGEPASISCQASQELVHMNRNTYLHWYQQKPGQAPRLLIYKVSNRFPGVPDRFSGSGSGTDFTLKISRVEAEDVGVYYCAQGTSVPFTFGQGTKLEIK"
14,0.5 fold,"H183/L072 VH A56E (antibody, name in Kabat numbering, V domains shown) VH: QVQLVESGGGLVQPGRSLRLSCAASGFTFSNAWMHWVRQAPGKGLEWVAQIKDKGNAYEAYYAPSVKGRFTISRDDSKNSIYLQMNSLKTEDTAVYYCHYVHYASASTVLPAFGVDAWGQGTTVTVSS VL: DIVMTQSPLSLPVTPGEPASISCQASQELVHMNRNTYLHWYQQKPGQAPRLLIYKVSNRFPGVPDRFSGSGSGTDFTLKISRVEAEDVGVYYCAQGTSVPFTFGQGTKLEIK"
15,0.5 fold,"H183/L072 VH A56L (antibody, name in Kabat numbering, V domains shown) VH: QVQLVESGGGLVQPGRSLRLSCAASGFTFSNAWMHWVRQAPGKGLEWVAQIKDKGNAYLAYYAPSVKGRFTISRDDSKNSIYLQMNSLKTEDTAVYYCHYVHYASASTVLPAFGVDAWGQGTTVTVSS VL: DIVMTQSPLSLPVTPGEPASISCQASQELVHMNRNTYLHWYQQKPGQAPRLLIYKVSNRFPGVPDRFSGSGSGTDFTLKISRVEAEDVGVYYCAQGTSVPFTFGQGTKLEIK"
